Test results taken from PMC10876309, “Two Main Cancer Biomarkers as Molecular Targets of Binase Antitumor Activity” (BioMed Research International, 2024).

Target: the molecule itself
Assay: SDS-PAGE and western blot; binase in the immunoprecipitated samples, blotted with anti-binase antibodies; bands of 12 kDa and 25 kDa

B1: binase, ribonuclease from Bacillus pumilus (enzyme, UniProt P00649 54-162, looked up)
chain: AVINTFDGVADYLIRYKRLPDNYITKSQASALGWVASKGNLAEVAPGKSIGGDVFSNREGRLPSASGRTWREADINYVSGFRNADRLVYSSDWLIYKTTDHYATFTRIR
notes: binase, ribonuclease of Bacillus pumilus, 12.3 kDa, pI 9.5; also called bacterial ribonuclease binase; cytotoxic ribonuclease from Bacillus pumilus; source: purified as described earlier [21, 22]
Does B1 bind?
Result: binds
